Where a chain is given by its changes, count along the chain named. Some results are limits rather than exact numbers.

The source of these data is patent publication US20260258115A1 (MAPP BIOPHARMACEUTICAL, published 2026).

In assay [1] the target is T1, RSV postfusion F (postF), subtype A (respiratory syncytial virus, subtype A, UniProt P03420 26-513).
T1 construct: also called F ΔFP; Postfusion subtype A
Nature of the assay: BLI, IgG. For orientation: BLI is a label-free optical method that tracks binding on a fibre tip over time.

Assay [2] addresses RSV prefusion F (preF), subtype B (respiratory syncytial virus, subtype B). Nature of the assay: BLI, IgG.
The target of assay [3] is RSV prefusion F (preF), subtype A (respiratory syncytial virus, subtype A, UniProt P03420 26-513). Nature of the assay: BLI, IgG.
In assay [4] the target is RSV fusion glycoprotein (RSV F) on RSV-A2 virus (respiratory syncytial virus, UniProt P03420 26-574). Put plainly: cell-based or functional assay.

B1: ADI-21034 (antibody, V domains shown)
VH: QVQLQQSGAEVKKPGESLTISCKGSGYSFGNYWISWVRQMPGKGLEWMGRIDPSDSYVNYSPSFQGNVTMSVDKSSSTAYLQWSSLKASDTAMYYCARLAGYSTLWGQGTLVTVSS
VL: EIVLTQSPGTLSLSPGERATLSCRASQSFGSIYLAWYQQKPGQAPRLLIYGTSSRATGIPDRFSGSGSGTDFTLTIRRLEPEDFAVYYCLYYGSSPGATFGPGTKVDIK
Regarding B1, in assay [1], the binding result is on record as “no binding”. The Kd in assay [2] is 0.174 nM; in assay [3] it was 0.145 nM.

B2: ADI-41353 (antibody, V domains shown)
VH: EVQLVESGVEVKKPGESLKISCRGSGYSFHNYWIAWVRQKPGKGLEYMGTIYVDDSDTIYSPSFQGEVTISADKSINTAYLQWNSLKASDTANYYCARQMDFYFDVWGRGTLVTVSS
VL: SYELTQPPSVSVSPGQTARITCSGDPLPRESAYWYQQKPGQAPVVVIFNDIERPLGIPERFSGSRSGTTVTLTISGAQAEDEADYYCQSADSRKTFVFGSGTKLTVL
For the molecule B2, in assay [4], the “Neutralization IC50 (RSV subtype A)” value is more than 25 mg/L.

B3: ADI-21045 (antibody, V domains shown)
VH: EVQLVESGGGLVKPGGSLRLSCLASGFKFRSYSMNWVRQAPGTGLVWVASISASSSFIFYADSLKGRFTISRDNDKNSLYLQMNSLTVEDTAVYYCVRDMSGISSGGKTFDYWGQGTLVTVSS
VL: QSVLTQPPSVSGAPGQRVTISCTGSSSNLGAGYDVQWYQQLPGTAPKLLIYGNNNRPSGVPDRFSGSKSGTSASLAITGLRAEDEADYYCQSYDTSPVFGGGTKLTVL
As to B3, the binding result in assay [1] is listed as “no binding”. Besides, the values for the Kd in assay [2] and in assay [3] were 0.596 nM and 0.456 nM, respectively.

B4: ADI-41357 (antibody, V domains shown)
VH: EVQLVESGGGLVQPGGSLRLSCAASGFTFSTYGMNWVRQAPGKGLEWVSYIGGSGRIIYYADSVKGRFTISRDNAKNSLYLQMNSLRAEDTAVYYCARDQHIVLVTGSTPDYWGQGTLVTVSS
VL: EIVLTQSPSSLSASVGDRVTITCRASHAISNYLAWFQQKPGKAPKSLIYAASTLQSGVPSKFSGSGSGTDFTLTISSLQPEDFATYYCQQYSSYPLTFGGGTKVEIK
Consider B4, for which, in assay [4], the “Neutralization IC50 (RSV subtype A)” value is more than 25 mg/L.

B5: ADI-41363 (antibody, V domains shown)
VH: QVQLVQSGAEVKKPGSSVKVSCKASGGTFSSYAITWVRQAPGQGLEWMGGIIPLFGTAKYAQQFQGRVTITADESTSTAYMELSSLRSEDTAVYYCARDGEVCTNGFCWFLDWGLGTLVTVSS
VL: DIRVTQSPSSLSASVGDRVTITCQASQDISNYLNWYQQKPGKAPKLLIYDASKLETGVPSRFSGSGSGTDFTFTISSLQPEDIATYYCQNYGNFPHFGGGTKLEIK
For B5, the “Neutralization IC50 (RSV subtype A)” value in assay [4] was determined as 0.143 mg/L.

B6: ADI-41380 (antibody, V domains shown)
VH: QVQLVQSGAEVKKPGESLKISCKGSGYSFTSYWIGWVRQMPGKGLEWMGIIYPGDSDTRYSPSFQGQVTISADKSISTAYLQWSSLKASDTAMYYCASSRAYYDILTGYYVASAETQTKAAFDIWGQGTTVTVSS
VL: B5 VL with R3Q, K53N, T72S, N90Q, G92D, F94L, P95I, H96T, G99Q, L103V
For B6, the “Neutralization IC50 (RSV subtype A)” value in assay [4] was found to be 0.0549 mg/L.

B7: ADI-21050 (antibody, V domains shown)
VH: QVQLVQSGAEVKKPGASVKVSCTASGYTFANNGISWVRQAPGQGLEWMGWISAYNGNTKYAQTVQGRVTLTTDTSTSTAYMELRSLTSDDTAVYYCAREMGVDAAATFDYWGQGTLVTVSS
VL: EIVMTQSPLFLSVTLGQPASISCRSSQSLVYSDTNTYLTWFQQRPGQSPRRLIYKVSNRDSGVPDRFSGSGSGTYFTLKISRVEAEDIGVYYCMQAIHWPRTFGQGTKLEIK
Take B7: in assay [1], the binding result was “no binding”. In addition, the equilibrium dissociation constant (Kd) is 0.323 nM in assay [2] and 0.362 nM in assay [3].

B8: ADI-41351 (antibody, V domains shown)
VH: QVQLVQSGGGLVQPGGSLRLSCSASGFTFSSKSMHWVRQAPGKGLEYVSAIRSDGVSTYYGDSVKGRFTVSRDNAKNTVYLRMSSLRREDTAVYYCVKGPYGDFQYNWFDTWGQGTLVTVSS
VL: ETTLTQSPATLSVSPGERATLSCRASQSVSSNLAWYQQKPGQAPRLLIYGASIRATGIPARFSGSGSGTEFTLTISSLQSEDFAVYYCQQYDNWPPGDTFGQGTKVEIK
For B8, in assay [4], the “Neutralization IC50 (RSV subtype A)” value was 0.149 mg/L.

B9: ADI-41364 (antibody, V domains shown)
VH: EVQLLESGAEVKKPGASVKVSCKASGYTFTDHSIHWVRQAPGRGLEWMGWFNPHTGVTDYAQKFQGWVTMTSDTSISTAYMELSSLKSDDTAIYFCARDQWETDGAYFLDYWGQGTLVTVSS
VL: QSALTQPASVSGSPGQSITISCTGTSSDVGNFKLVSWYQQHPGKAPKLMIYEGNKRPSGVSNRFSGSKSGNTASLTISGLQAEDEADYYCCSSAVSSTFFGTGTKLTVL
For the molecule B9, the “Neutralization IC50 (RSV subtype A)” value in assay [4] amounted to 0.14 mg/L.

B10: ADI-41359 (antibody, V domains shown)
VH: EVQLVESGGGLVKPGGSLRLSCAASGFTISGYSMDWVRQAPGKGLEWVSSISSSSSYIHYADSVKGRFTISRDNAKNSLYLQMNSLRAEDTAVYYCATNPREGGAFDIWGQGTTVTVSS
VL: QSVLTQPPSMSGAPGQRVTISCTGSSSNIGAGYDVHWYQQLPGTAPKLLIYNNSNRPSGVPDRFSASKSGTSASLAITGLQAEDEADYYCQSYDSSLSGYVFGTGTRVTVP
As for B10, the “Neutralization IC50 (RSV subtype A)” value in assay [4] is more than 25 mg/L.

B11: ADI-21033 (antibody, V domains shown)
VH: QVQLVQSGAEVRKPGDSLKISCKFSENIFTTYYWTGWVRQMPGRGLEWMGIIFPGDSDTRYSPSFQGHVTISVDKSIATAFLQWSSLKASDSAMYYCARAKYEGSFDMWGQGTMVTVSS
VL: DIQVTQSPSSLSASVGDRVSITCQASQDIRNRLNWYQQKPGKAPKLLIYDASILETGVPSRFSGSGSGTDFTFSISSLQPEDFATYYCQQYDSFSLFTFGPGTKVEIK
In the case of B11, the binding result in assay [1] is given as “no binding”. For the same molecule, the Kd is 1.4 nM in assay [2] and 0.193 nM in assay [3].

B12: ADI-21051 (antibody, V domains shown)
VH: QVQLVESGPGLVRPSQTLSLTCNVSGDFISRGTYYWSWIRQSAGKGLEWIGRIYTSGITDYSPSLKSRVTISVDTSKNQFFLKLASVTAADTAVYYCARGRGYYDSPWGQGTLVTVSS
VL: ETTLTQSPATLSLSPGERATLSCRASESVSTFLGWYQQKPGQAPRLLIYDASNRASGVPARFSGSGSGTDFTLTISSLEPEDFAVYYCQLRNKWLTFGPGTKVDIK
On to B12, for which the binding result in assay [1] is recorded as “no binding”. Also, the Kd was 0.335 nM in assay [2] and 0.292 nM in assay [3].

B13: ADI-21038 (antibody, V domains shown)
VH: QVQLVQSGAEVKKPGESLKISCQGFGFSFTSYWIGWVRQTPGKGLEWMGTIYPGDSETRKSPSIQGQVTFSADRSISTAYLQWSGLTASDTAVYYCARLKGGWGTTMAGIRDYFYYGLDVWGQGTTVTVSS
VL: EIVLTQSPGTLSLSPGERATLSCRASQSVSSSYLAWYQQKPGQAPRLLIYGASSRATGIPDRFTGSGSGTDFTLTISRLEPEDFAVYYCQQYATSLGGFTFGPGTKVDIK
As for B13, the results for the Kd in assay [1], in assay [2] and in assay [3] were 1.45 nM, 16 nM and 2.93 nM, respectively.

B14: ADI-21059 (antibody, V domains shown)
VH: QVQLVQSGAEVKRPGDSLKISCKGSGYSFTTSWIGWVRQVPGKGLEWMGIIYPGDSNTVYGPSLQGQVTISADKSTNTAYLQWSSLKASDTAMYYCARRDGGTDYLSDAFDIWGQGTFVTVSS
VL: DIQMTQSPSSLSASVGDRVTITCRTSQNIVIYLNWYQQKPGKAPKLLIFAASSLPSGVPSRFSGSGSGTDFTLTISSLQPEDVATYYCQQSYNTPGTFGQGTKVDIK
For B14, the binding result in assay [1] is “no binding”. Besides, the results for the Kd in assay [2] and in assay [3] were 9.43 nM and 3.05 nM, respectively.

B15: ADI-21052 (antibody, V domains shown)
VH: QVQLVQSGAEVKKPGASVKVSCKASGYTFTSYGISWVRQAPGQGLEWMGWISAYNGNTNYAQNLQGRVTMTTDTSTSTAYMELRSLRSDDTAMYYCARDAFSRVGYWYFDLWGRGTLVTVSS
VL: SYELTQPPSVSVAPGQAARITCGGNNIGSKTVHWYQQKPSQAPVLVVYDDSDRPSGIPERFSGSNSGNTATLTISRVEAGDEADYYCQVWDSSGDHPVFGGGTKLTVL
notes: also called Ab 300
Turning to B15, the Kd in assay [1] was determined as 18.4 nM; in assay [2], 0.11 nM; in assay [3] it was 0.126 nM.

B16: ADI-41358 (antibody, V domains shown)
VH: EVQLVESGGGLVKPGGSLRLSCEASGFTLTSYSMNWVRQAPGKGLEWVSSISSSSTYIHYADSVKGRFTISRDNAKNSLYLQMNSLRAEDTAVYYCARDKVMVTKYNGMDVWGQGTTVTVSS
VL: QSVLTQPPAVSGAPGQRVTISCTGSSSNIGAGHDVHWYQQLPGTAPKLLIYGNSNRPSGVPDRFSGSKSGTSASLAITGLQAGDEADYYCQSYDSSLSGSLFGGGTKLTVL
Turning to B16, the “Neutralization IC50 (RSV subtype A)” value in assay [4] is 0.389 mg/L.

B17: ADI-41362 (antibody, V domains shown)
VH: EVQLVESGGGLVQPGGSLRLSCAASGFTFSDHWMNWVRQTPGKGLEWVANIKPDGRETYYVDSVKGRFTISRDNSKKSVYLQMNSLRAEDTAVYYCVRDGHIVVVTAVPPGFFDLWGRGTLVTVSS
VL: DIQVTQSPSSLSASVGDRVTITCQASQDLTKYLNWYQQKPGKAPKLLIYDISNLETGVPSRFSGSGFGTEFTLTISSLQPEDVATYYCQQYQNLPYTFGQGTKVEIK
Turning to B17, the “Neutralization IC50 (RSV subtype A)” value in assay [4] came to 0.911 mg/L.

B18: ADI-21044 (antibody, V domains shown)
VH: QVQLVQSGAELKKPGESLKISCKTSGYTFANYWIGWVRQMPGKGLEWMGIIYPGDSDTRYSPSFQGQVTFSADKSINSAYLQWHSLKASDSAIYYCARRFSPDYSDGAAPPTLSDAFDVWGQGTTVTVSS
VL: DIVMTQSPSSLSASVGDRVTITCRASQNINIYLNWYQQKPGKAPKLLIYAASTLQSGVPSRFSGSGSATDFTLTISSLQPEDFATYYCQQSYRTPNDFGRGTKVDIK
For B18, in assay [1], the binding result is “no binding”. Moreover, the results for the dissociation constant Kd in assay [2] and in assay [3] were 5.85 nM and 4.51 nM, respectively.

B19: ADI-21063 (antibody, V domains shown)
VH: EVQLVESGGGLVQPGGSLRLSCSASGFTFRTYVMQWVRQAPGKGLEYVSAISSDGGSTDYADSVKGRFTVSRDNSKNTLYLQMSSLRAEDTAVYYCVKRGEGGNDYLYYYMDVWGKGTTVTVSS
VL: DIQVTQSPSSLSASVGDRVTITCRASQSITNYLNWYQQKPGKAPKVLIYAASSLQSGVPSRFSGSGSGTDFTLTISSLQPEDFATYYCQQSYLRPPTFGGGTKVEIK
B19: the binding result in assay [1] is recorded as “no binding”. Moreover, the Kd in assay [2] stood at 0.777 nM; in assay [3], 0.834 nM.

Usually Kd stands for the constant that tells how readily two partners part at equilibrium. Low readings indicate a tighter complex, high ones a looser complex.
